Measurements as given in the PETadex activity labels (doi:10.1021/bi00096a018).
Numbering of substitutions follows the chain as printed.

B1: unnamed (protein)
chain: MRPPWYPLHTPSLAFPLLFLLLSLLGGGARAEGREDPQLLVRVRGGQLRGIRLKAPGGPVSAFLGIPFAEPPVGSRRFMPPEPKRPWSGVLDATTFQNVCYQYVDTLYPGFEGTEMWNPNRELSEDCLYLNVWTPYPRPASPTPVLIWIYGGGFYSGAASLDVYDGRFLAQVEGAVLVSMNYRVGTFGFLALPGSREAPGNVGLLDQRLALQWVQENIAAFGGDPMSVTLFGESAGAASVGMHILSLPSRSLFHRAVLQSGTPNGPWATVSAGEARRRATLLARLVGCPPGGAGGNDTELIACLRTRPAQDLVDHEWHVLPQESIFRFSFVPVVDGDFLSDTPEALINTGDFQDLQVLVGVVKDEGSAFLVYGVPGFSKDNESLISRAQFLAGVRIGVPQASDLAAEAVVLHYTDWLHPEDPTHLRDAMSAVVGDHNVVCPVAQLAGRLAAQGARVYAYIFEHRASTLTWPLWMGVPHGYEIEFIFGLPLDPSLNYTTEERIFAQRLMKYWTNFARTGDPNDPRDSKSPQWPPYTTAAQQYVSLNLKPLEVRRGLRAQTCAFWNRFLPKLLSATDTLDEAERQWKAEFHRWSSYMVHWKNQFDHYSKQERCSDL
B2: unnamed (protein)
chain: B1 chain with Y103N, Y155Q, W317A, A368Y
B3: unnamed (protein)
chain: B1 chain with F326Y, A368Y
B4: unnamed (protein)
chain: B1 chain with D105N, A368Y
B5: unnamed (protein)
chain: B1 chain with F328I, A368Y
B6: unnamed (protein)
chain: B1 chain with R327S, A368Y
B7: unnamed (protein)
chain: B1 chain with F326L, F328I, A368Y
B8: unnamed (protein)
chain: B1 chain with Y103N, D105N, Y155Q, W317A, A368Y
B9: unnamed (protein)
chain: B1 chain with A368Y

Substrate: Acetylcholine
Conditions: pH 7; 22 °C

Protein	Km [µM]	kcat [s⁻¹]	kcat/Km [M⁻¹ s⁻¹]
B1	110	867	
B2	230	2500	
B3	17	102	
B4	1300	1400	
B5	357000	250	700
B6	50	1530	
B7	200	200	
B8	2100	2500	
B9	451000	667	1480
